Reference: article PMC8081927

Target: Aβ1-42 fibrils (UniProt P05067)
Experiment: flow cytometry on beads; Aβ fibrils (1% biotinylated, 1 μM) immobilised on streptavidin Dynabeads, blocked with 10% milk; antibody dilutions in PBSB with 1% milk, 3 h, 25 °C; detected with goat anti-human Fc AF647; apparent affinity (EC50)

B1: crenezumab (variable domains grafted onto an IgG1 scaffold with a human Fc fragment) (antibody, V domains shown)
VH: EVQLVESGGGLVQPGGSLRLSCAASGFTFSSYGMSWVRQAPGKGLELVASINSNGGSTYYPDSVKGRFTISRDNAKNSLYLQMNSLRAEDTAVYYCASGDYWGQGTTVTVSS
VL: DIVMTQSPLSLPVTPGEPASISCRSSQSLVYSNGDTYLHWYLQKPGQSPQLLIYKVSNRFSGVPDRFSGSGSGTDFTLKISRVEAEDVGVYYCSQSTHVPWTFGQGTKVEIK
- EC50: 9 nM
